{"source": "paper PMC12316734", "about": "“Lipase Activation by Poly(Methyl Methacrylate) in Dispersed Solution: Mechanistic Insights by Fluorescence Spectroscopy” (Applied Biochemistry and Biotechnology, 2025)", "proteins": {"B1": {"name": "Candida antarctica lipase B (CalB) (Moesziomyces antarcticus) (protein)", "chain": "LPSGSDPAFSQPKSVLDAGLTCQGASPSSVSKPILLVPGTGTTGPQSFDSNWIPLSTQLGYTPCWISPPPFMLNDTQVNTEYMVNAITALYAGSGNNKLPVLTWSQGGLVAQWGLTFFPSIRSKVDRLMAFAPDYKGTVLAGPLDALAVSAPSVWQQTTGSALTTALRNAGGLTQIVPTTNLYSATDEIVQPQVSNSPLDSSYLFNGKNVQAQAVCGPLFVIDHAGSLTSQFSYVVGRSALRSTTGQARSADYGITDCNPLPANDLTPEQKVAAAALLAPAAAAIVAGPKQNCEPDLMPYARPFAVGKRTCSGIVTP", "notes": "commercial lipase B (Strem Chemicals), free enzyme in solution"}, "B2": {"name": "Thermomyces lanuginosus lipase (TLL) (Thermomyces lanuginosus) (protein)", "chain": "EVSQDLFNQFNLFAQYSAAAYCGKNNDAPAGTNITCTGNACPEVEKADATFLYSFEDSGVGDVTGFLALDNTNKLIVLSFRGSRSIENWIGNLNFDLKEINDICSGCRGHDGFTSSWRSVADTLRQKVEDAVREHPDYRVVFTGHSLGGALATVAGADLRGNGYDIDVFSYGAPRVGNRAFAEFLTVQTGGTLYRITHTNDIVPRLPPREFGYSHSSPEYWIKSGTLVPVTRNDIVKIEGIDATGGNNQPNIPDIPAHLWYFGLIGTCL", "notes": "commercial lipase (gift of ASA Spezialenzyme), desalted; predominantly dimer in FCS"}, "B3": {"name": "Bacillus subtilis lipase A (BSLA WT) (Bacillus subtilis subsp. subtilis str. 168) (protein)", "chain": "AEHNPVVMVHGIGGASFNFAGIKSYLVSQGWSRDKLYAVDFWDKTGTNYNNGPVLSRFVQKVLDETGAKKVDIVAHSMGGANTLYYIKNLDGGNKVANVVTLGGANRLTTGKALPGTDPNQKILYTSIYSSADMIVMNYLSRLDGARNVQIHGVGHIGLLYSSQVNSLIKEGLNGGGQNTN"}}, "assay_in_all_cases": "fluorogenic hydrolysis assay, Michaelis-Menten fit", "conditions_in_all_cases": "pH 7, 20 °C, no PMMA, 2% DMSO, 500 nM enzyme", "key": {"[1]": {"substrate": "CCCC(=O)Oc1ccc2c(C)cc(=O)oc2c1", "format": "biochemical, Moesziomyces antarcticus", "source_text": "fluorogenic hydrolysis assay, Michaelis-Menten fit on Candida antarctica lipase B (CalB)"}, "[2]": {"substrate": "CCCC(=O)Oc1ccc2c(C)cc(=O)oc2c1", "format": "biochemical, Thermomyces lanuginosus", "source_text": "fluorogenic hydrolysis assay, Michaelis-Menten fit on Thermomyces lanuginosus lipase (TLL)"}, "[3]": {"substrate": "CCCC(=O)Oc1ccc2c(C)cc(=O)oc2c1", "format": "biochemical, Bacillus subtilis", "source_text": "fluorogenic hydrolysis assay, Michaelis-Menten fit on Bacillus subtilis lipase A (BSLA WT)"}}}
{"protein": "B1", "values": [{"measurement": "Km", "setting": "[1]", "result": "26.6 ± 1.77", "unit": "µM"}, {"measurement": "Vmax", "setting": "[1]", "result": 5.43, "unit": "µM/min"}, {"measurement": "Vmax/Km", "setting": "[1]", "result": 0.2, "unit": "min⁻¹"}]}
{"protein": "B2", "values": [{"measurement": "Km", "setting": "[2]", "result": "20.8 ± 1.67", "unit": "µM"}, {"measurement": "Vmax", "setting": "[2]", "result": 4.16, "unit": "µM/min"}, {"measurement": "Vmax/Km", "setting": "[2]", "result": 0.2, "unit": "min⁻¹"}]}
{"protein": "B3", "values": [{"measurement": "Km", "setting": "[3]", "result": "39.2 ± 3.61", "unit": "µM"}, {"measurement": "Vmax", "setting": "[3]", "result": 97.7, "unit": "µM/min"}, {"measurement": "Vmax/Km", "setting": "[3]", "result": 2.49, "unit": "min⁻¹"}]}
